In US20240425607A1, “IL-18BP ANTAGONIST ANTIBODIES AND THEIR USE IN MONOTHERAPY AND COMBINATION THERAPY IN THE TREATMENT OF CANCER” (Compugen Ltd., priority 2023, published 2024):
Numbering of substitutions follows the chain as printed.

B1: ADI-71710: anti-IL18-BP antibody, sequences in FIG. 2I; 66650 lineage (antibody, V domains shown)
VH: QVQLVQSGAEVKKPGASVKVSCKASGYTFGIYAMHWVRQAPGQRLEWMGWIHAGTGVTKYSQKFQGRVTITRDTSASTAYMELSSLRSEDTAVYYCARGLGEVGPTGTSWFDPWGQGTLVTVSS
VL: DIQMTQSPSTLSASVGDRVTITCRASQSISSWLAWYQQKPGKAPKLLIYEASSLESGVPSRFSGSGSGTEFTLTISSLQPDDFATYYCQQYRYSPFTFGGGTKVEIK
B2: ADI-71719: anti-IL18-BP antibody, sequences in FIG. 2B; 66670 lineage (antibody, V domains shown)
VH: QVQLVQSGAEVKKPGSSVKVSCKASGGTFNSYVISWVRQAPGQGLEWMGGIIPGAGTANYAQKFQGRVTITADESTSTAYMELSSLRSEDTAVYYCARGRHSHETWGQGTLVTVSS
VL: DIQMTQSPSSVSASVGDRVTITCRASQGISSWLAWYQQKPGKAPKLLIYAASSLQSGVPSRFSGSGSGTDFTLTISSLQPEDFATYYCQQVYSLPWTFGGGTKVEIK
B3: ADI-71720: anti-IL18-BP antibody, sequences in FIG. 2C; 66670 lineage (antibody, V domains shown)
VH: B2 VH with N30S, S31E
VL: B2 VL with S76G
B4: ADI-71728: anti-IL18-BP antibody, sequences in FIG. 2O; 66670 lineage (antibody, V domains shown)
VH: B2 VH with N30S, S31E, V33P, G54Y, A55S, N59V, S102G
VL: B2 VL with L94I
B5: ADI-71736: anti-IL18-BP antibody, sequences in FIG. 2L; 66716 lineage (antibody, V domains shown)
VH: QLQLQESGPGLVKPSETLSLTCTVSGGSISSSEYGWGWIRQPPGKGLEWIGSIVNSGSTYYNPSLKSRVTISVDTSKNQFSLKLSSVTAADTAVYYCARGPHRQVFDYWGQGTLVTVSS
VL: B2 VL with L46H, V91G, Y92F, L94F, W96Y
B6: ADI-71741: anti-IL18-BP antibody, sequences in FIG. 2P (antibody, V domains shown)
VH: B5 VH with E33D, G35P, V54Y, N55Y, H102Y
VL: B2 VL with V91G, Y92N, L94F, W96Y
B7: ADI-71742: anti-IL18-BP antibody, sequences in FIG. 2Q (antibody, V domains shown)
VH: B5 VH with G8S, S32P, E33D, G35P, V54F, N55Y, S58N
VL: B2 VL with V91G, Y92W, L94F, W96Y
B8: ADI-71744: anti-IL18-BP antibody, sequences in FIG. 2R (antibody, V domains shown)
VH: B5 VH with H102Y
VL: B2 VL with V91G, Y92W, L94F, W96Y
B9: ADI-71753: anti-IL18-BP antibody, sequences in FIG. 2S (antibody, V domains shown)
VH: B5 VH with S30F, E33D, G35Y, G37S, S52V, V54A, N55Y, V87A, H102F
VL: B2 VL with V91G, Y92S, L94F, W96Y
B10: ADI-71755: anti-IL18-BP antibody, sequences in FIG. 2T (antibody, V domains shown)
VH: B5 VH with S32P, E33D, G35P, V54F, N55Y, S58N, H102F
VL: B2 VL with V91G, Y92W, L94F, W96Y
B11: ADI-71663: anti-IL18-BP antibody, sequences in FIG. 2F; 66692 lineage (antibody, V domains shown)
VH: EVQLLESGGGLVQPGGSLRLSCAASGFTFGNTAMSWVRQAPGKGLEWVSAISANAGSTYYADSVKGRFTISRDNSKNTLYLQMNSLRAEDTAVYYCAKGPDRQVFDYWGQGTLVTVSS
VL: B2 VL with Q90H, V91A, Y92L, S93F, L94F, W96Y
B12: ADI-71701: anti-IL18-BP antibody, sequences in FIG. 2E; 66650 lineage (antibody, V domains shown)
VH: B1 VH with G30N, I31S, V57N
VL: B1 VL with S9P, Y93V, S94F
B13: ADI-71707: anti-IL18-BP antibody, sequences in FIG. 2M; 66650 lineage (antibody, V domains shown)
VH: B1 VH with G30R, I31H, V57N, K59L
VL: B1 VL with Y93L, S94G

Tests used:
[1] = Fab Tm by dynamic scanning fluorimetry (DSF); format: physicochemical; details: optimized antibodies
Method: 10 μL of 20× Sypro Orange is added to 20 μL of 0.2-1 mg/mL mAb or Fab solution. A RT-PCR instrument (BioRad CFX96 RT PCR) is used to ramp the sample plate temperature from 40 to 95° C. at 0.5° C. increment, with 2 min equilibrate at each temperature. The negative of first derivative for the raw data is used to extract Tm.

SEC-HPLC % monomer = format: physicochemical; details: optimized antibodies
Method: A TSKgel SuperSW mAb HTP column (22855) was used for fast SEC analysis of mammalian produced mAbs at 0.4 mL/min with a cycle time of 6 min/run. 200 mM Sodium Phosphate and 250 mM Sodium Chloride was used as the mobile phase.

Row | Molecule | Fab Tm (DSF, ° C.) [1] | SEC-HPLC, % monomer (SEC-HPLC % monomer)
1 | B1 | 71.5 °C | 97.9%
2 | B2 | 72.5 °C | 94.5%
3 | B3 | 72.5 °C | 98.6%
4 | B4 | 73.0 °C | 95.0%
5 | B5 | 73.5 °C | 79.2%
6 | B6 | 73.5 °C | 99.4%
7 | B7 | 74.0 °C | 91.3%
8 | B8 | 74.5 °C | 88.1%
9 | B9 | 74.5 °C | 96.9%
10 | B10 | 74.5 °C | 92.9%
11 | B11 | 68.0 °C | 93.9%
12 | B12 | 71.5 °C | 98.6%
13 | B13 | 71.0 °C | 98.8%
